Experimental data: publication PMC3176292

T1: Flag-Smad4, full length, Q13485
T1 chain: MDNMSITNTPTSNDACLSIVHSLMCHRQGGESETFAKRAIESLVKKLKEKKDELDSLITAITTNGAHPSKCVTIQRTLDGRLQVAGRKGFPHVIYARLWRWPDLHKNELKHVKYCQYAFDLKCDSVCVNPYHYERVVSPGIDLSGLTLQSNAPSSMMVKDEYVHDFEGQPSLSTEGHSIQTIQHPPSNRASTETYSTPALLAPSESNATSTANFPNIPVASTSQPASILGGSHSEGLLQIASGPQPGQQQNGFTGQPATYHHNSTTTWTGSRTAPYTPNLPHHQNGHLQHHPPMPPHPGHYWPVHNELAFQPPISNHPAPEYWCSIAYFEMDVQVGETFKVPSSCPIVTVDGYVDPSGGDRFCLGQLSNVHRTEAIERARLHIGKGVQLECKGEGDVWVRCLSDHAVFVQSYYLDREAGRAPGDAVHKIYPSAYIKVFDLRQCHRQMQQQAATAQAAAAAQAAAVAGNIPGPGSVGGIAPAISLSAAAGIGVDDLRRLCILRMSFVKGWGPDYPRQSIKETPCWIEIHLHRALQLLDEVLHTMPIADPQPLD

B1: Renilla luciferase-Smad3 wild type, co-expressed with constitutively active Alk5 (phosphorylated Smad3), P84022 1-425 (natural protein)
chain: MSSILPFTPPIVKRLLGWKKGEQNGQEEKWCEKAVKSLVKKLKKTGQLDELEKAITTQNVNTKCITIPRSLDGRLQVSHRKGLPHVIYCRLWRWPDLHSHHELRAMELCEFAFNMKKDEVCVNPYHYQRVETPVLPPVLVPRHTEIPAEFPPLDDYSHSIPENTNFPAGIEPQSNIPETPPPGYLSEDGETSDHQMNHSMDAGSPNLSPNPMSPAHNNLDLQPVTYCEPAFWCSISYYELNQRVGETFHASQPSMTVDGFTDPSNSERFCLGLLSNVNRNAAVELTRRHIGRGVRLYYIGGEVFAECLSDSAIFVQSPNCNQRYGWHPATVCKIPPGCNLKIFNNQEFAALLAQSVNQGFEAVYQLTRMCTIRMSFVKGWGAEYRRQTVTSTPCWIELHLNGPLQWLDKVLTQMGSPSIRCSSVS
modifications: here or on the partner: phosphorylated by the co-expressed activated Alk5 kinase (sites not given)
B2: Renilla luciferase-Smad3 wild type, without Alk5 (not phosphorylated), P84022 1-425 (natural protein)
chain: B1 chain

Experiments:
[1] = target: T1, Flag-Smad4, full length, Q13485; assay: co-IP; LUMIER: Renilla luciferase-Smad3 and Flag-tagged partner co-expressed with constitutively active Alk5 in HEK-293; Flag protein captured from cleared lysate (TNE: 10 mM Tris-HCl pH 7.8, 150 mM NaCl, 1 mM EDTA, 1% Igepal CA-630) on anti-Flag 96-well plates, 2 h at 4 °C; co-precipitated Renilla luciferase activity, TrxGA background subtracted, percent of wild-type Smad3; settings: remark: other sources report otherwise
[2] = target: T1, Flag-Smad4, full length, Q13485; assay: co-IP; LUMIER as a1 but without co-expression of the activated Alk5 kinase (Smad3 not phosphorylated); percent of phosphorylated wild-type Smad3; settings: remark: other sources report otherwise

Binder | percent binding relative to wild-type Smad3 [1] | percent binding relative to wild-type Smad3 [2]
B1 | 100% | 
B2 |  | 6%
